Assay [1] addresses GCN4-TRAK1_(342-431) (UniProt Q9UPV9). Kind of assay: ITC; VP-ITC, 25 °C; ITC buffer (20 mM Hepes pH 7.5, 400 mM NaCl, 1 mM MgCl2, 5% w/v sucrose, 0.1 μM GTP) with 5 mM EGTA; the binder of each row in the syringe. On the technique in general: Isothermal titration calorimetry measures the heat released or taken up as one component is titrated into another.
Assay [2] shares this target. Kind of assay: ITC; VP-ITC, 25 °C; ITC buffer (20 mM Hepes pH 7.5, 400 mM NaCl, 1 mM MgCl2, 5% w/v sucrose, 0.1 μM GTP) with 50 μM CaCl2; MIRO1_(177-591) in the syringe, TRAK1 construct in the cell.

Chain of MIRO1_(177-591) (Q8IXI2 177-591): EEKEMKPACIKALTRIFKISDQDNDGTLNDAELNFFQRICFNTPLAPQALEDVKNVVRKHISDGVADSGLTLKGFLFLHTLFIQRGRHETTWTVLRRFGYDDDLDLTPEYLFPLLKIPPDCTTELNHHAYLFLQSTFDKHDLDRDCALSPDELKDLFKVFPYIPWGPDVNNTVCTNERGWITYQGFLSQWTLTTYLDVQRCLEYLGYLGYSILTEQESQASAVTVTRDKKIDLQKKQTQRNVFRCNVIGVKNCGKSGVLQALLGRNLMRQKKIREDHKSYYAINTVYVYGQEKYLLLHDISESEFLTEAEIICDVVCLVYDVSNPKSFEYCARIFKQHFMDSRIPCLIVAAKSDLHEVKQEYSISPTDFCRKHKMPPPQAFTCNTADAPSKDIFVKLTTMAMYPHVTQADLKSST

The Kd is a measure of binding affinity in units of concentration. The low end stands for a tighter complex, the high end for a looser complex. In general, stoichiometry N refers to the number of molecules, sites or subunits per partner or assembly. As for “MIRO1_(177-591) (from UniProt Q8IXI2 177-591) (domain or fragment)”, in assay [1], the Kd came to 5.13 µM and the stoichiometry N was 1.84. Besides, in assay [2], the Kd amounted to 7.04 µM and the stoichiometry N is 1.93.
